Entries after “also recorded” stand apart in the source; their conditions may differ.
Experiments:
LuCaP 35CR organoids = test: LuCaP 35CR organoids, ex vivo 3D Matrigel; type: cell-based; settings: single treatment
From the text: (§1) FIGS. 9A-9E. Targeting Wnt5A by BERA-Wnt5a siRNA resensitizes LuCaP35CR PDX organoids and tumor growth to enzalutamide treatment. FIG. 9A: Organoids derived from the LuCaP PDX model were established in an ex vivo 3D Matrigel format and treated with bioengineered BERA-Wnt5a siRNA. […] FIG. 9D: Mouse body weight was unaffected by all of the treatments.
(§2) To examine if targeting Wnt5a enhances enzalutamide treatment in resistant prostate cancer, we examined the combinational effects of targeting Wnt5a and enzalutamide in an ex vivo model. Organoids derived from the LuCaP PDX model were established in an ex vivo 3D Matrigel format and treated with bioengineered BERA-Wnt5a siRNA. […] To further determine the anti-tumor effects of Wnt5a inhibition in vivo, we employed a LuCaP 35CR patient derived xenograft model, which was treated with bioengineered BERA-Wnt5a siRNA.

LuCaP 35CR PDX tumors = test: LuCaP 35CR patient derived xenograft model, combination with enzalutamide (Example 3); type: in vivo, mouse; settings: single treatment
From the text: as §1, §2

Wnt5A = Wnt5A expression in CWR22rv1 cells; type: cell-based
C4-2B MDVR cells = test: C4-2B MDVR cell number, combination with antiandrogens; type: cell-based
Procedure: (§3) FIGS. 5A-5B. […] Resistant C4-2B MDVR and PS1172 CRC prostate cancer cells were treated with either enzalutamide (Enza) or Wnt5a siRNA (#1) or the combination (#1+Enza) for three days and 5 days, and the cell numbers were determined.
FIGS. 6A-6C. […] Resistant C4-2B MDVR prostate cancer cells were treated with either enzalutamide (Enza, 20 uM) or tRNA-1 (10 nM) or tRNA-2 (10 nM) or the combination (combination) for 3 days and 6 days, and the cell numbers were determined.
FIGS. 7A-7B. Combination of tRNA Wnt5a with antiandrogens in C4-2B MDVR cells. C4-2B MDVR cells were treated with tRNA Wnt5a and antiandrogens such as apalutamide (Apa), darolutamide (Daro), enzalutamide (enza) individually or combination for 3 days and 6 days and the cell number was determined.
(§4) Enzalutamide resistant C4-2B MDVR cells and PS1172 CRC cells were treated with either enzalutamide (20 μM) or Wnt5a siRNA (#1) or their combination (enza+#1) for 3 days and 5 days (C4-2B MDVR cells) or 3 days and 6 days (PS1172 CRC cells), and the cell numbers were determined.
Resistant C4-2B MDVR prostate cancer cells were treated with either enzalutamide (Enza, 20 uM) or tRNA-1 (10 nM) or tRNA-2 (10 nM) or their combination for 3 days and 6 days, and the cell numbers were determined.
Knockdown of Wnt5a by tRNA-Wnt5a siRNA enhances anti-androgen (enzalutamide, apalutamide, darolutamide) treatments (FIG. 7A). Resistant C4-2B MDVR cells were treated with tRNA Wnt5a siRNA-2 and antiandrogens such as apalutamide (Apa), darolutamide (Daro), enzalutamide (enza) individually or their combination for 3 days and 6 days and the cell number was determined.

PS1172 CRC cells = test: PS1172 CRC cell number, combination with enzalutamide; type: cell-based; settings: Wnt5a siRNA + enzalutamide 20 μM, 3 days and 6 days
Procedure: as §3, §4

[1] = system: enzalutamide resistant CWR22rv1 cells; test: CWR22rv1 cell growth, alone and with enzalutamide; type: cell-based; settings: for improvement of enzalutamide treatment: CWR22rv1 cells, combined with enzalutamide; for cell growth: enzalutamide resistant CWR22rv1 cells, single agent
From the text: In addition to spectrometry and gel electrophoresis analyses of target Wnt5A-siRNAs during the purification described above, we conducted HPLC analysis to validate the purity of isolated siRNAs and LC-MS studies to verify RNA sequence and identify possible posttranscriptional modifications.

Molecule: CNC(=O)c1ccc(N2C(=S)N(c3ccc(C#N)c(C(F)(F)F)c3)C(=O)C2(C)C)cc1F [enzalutamide]
- organoid response (LuCaP 35CR organoids): resistant
- PSA expression (LuCaP 35CR PDX tumors): without reaching significance
- tumor growth (LuCaP 35CR PDX tumors): resistant

Molecule: Wnt5a siRNA (#1): siRNA specific to Wnt5a, 5′-ACAAACUGGUCCACGAUCUCCGUGC-3′ (expressed or natural sequence)
- Wnt5A expression (Wnt5A): downregulated Wnt5A expression
- effect on enzalutamide treatment (cell numbers) (C4-2B MDVR cells; Wnt5a siRNA + enzalutamide 20 μM, 3 days and 5 days): synergistically enhanced enzalutamide treatment; also recorded: re-sensitize cells to enzalutamide
- effect on enzalutamide treatment (cell numbers) (PS1172 CRC cells): synergistically enhanced enzalutamide treatment; also recorded: re-sensitize cells to enzalutamide

B1: tRNA-siWnt5A-1: bioengineered tRNA-pre-miRNA chimera (human tRNA Leu / pre-miR-34a carrier) carrying Wnt5a siRNA #1, FIG. 8A, SEQ ID NO:20 (nucleic acid)
chain: NNCNCAACANAAAAAACNNNGNGNAANACNNGNAACGCNGAANNCACCAGGANGGCCGAGNGGNNAAGGCGNNGGACNGGCCAGCNGNGAGNGNNNCNNACAAACUGGUCCACGAUCUCCGNGNGAGCAANAGNAAGGAAUGGAGAUCGGGAUCCAGUUUGCUAGAAGNGCNGCACGNNGNNGGCCCGANCCAANGGACANANGNCCGCGNGGGNNCGAACCCCACNCCNGGNACCACNGCAGANCCNNAGCGAAAGCNAAGGANNNNNNNN
modifications: modified_base (1)..(2) t or u; modified_base (4)..(4) t or u; modified_base (10)..(10) t or u; modified_base (18)..(20) t or u; modified_base (22)..(22) t or u; modified_base (24)..(24) t or u; modified_base (27)..(27) t or u; modified_base (30)..(31) t or u; modified_base (33)..(33) t or u; modified_base (39)..(39) t or u; modified_base (43)..(44) t or u; modified_base (53)..(53) t or u; modified
- improvement of enzalutamide treatment [1]: improved enzalutamide treatment; also recorded: improved enza treatment
- cell growth [1]: inhibited cell growth
- Wnt5A expression (Wnt5A): downregulated Wnt5A expression
- effect on enzalutamide treatment (cell numbers) (C4-2B MDVR cells; chimera 10 nM + Enza 20 uM, 3 days and 6 days, listed as tRNA-Wnt5a siRNA-1): enhanced enzalutamide; also recorded: synergizes enzalutamide

B2: tRNA-siWnt5A-2: bioengineered tRNA-pre-miRNA chimera (human tRNA Leu / pre-miR-34a carrier) carrying Wnt5a siRNA #2, FIG. 8B, SEQ ID NO:21 (nucleic acid)
chain: NNCNCAACANAAAAAACNNNGNGNAANACNNGNAACGCNGAANNCACCAGGANGGCCGAGNGGNNAAGGCGNNGGACNGGCCAGCNGNGAGNGNNNCNNCUAGGAAGAACUUGGAAGACAUNGNGAGCAANAGNAAGGAAGUGUCUUCCGGUCUUUUCCUACUAGAAGNGCNGCACGNNGNNGGCCCGANCCAANGGACANANGNCCGCGNGGGNNCGAACCCCACNCCNGGNACCACNGCAGANCCNNAGCGAAAGCNAAGGANNNNNNNN
modifications: modified_base (1)..(2) t or u; modified_base (4)..(4) t or u; modified_base (10)..(10) t or u; modified_base (18)..(20) t or u; modified_base (22)..(22) t or u; modified_base (24)..(24) t or u; modified_base (27)..(27) t or u; modified_base (30)..(31) t or u; modified_base (33)..(33) t or u; modified_base (39)..(39) t or u; modified_base (43)..(44) t or u; modified_base (53)..(53) t or u; modified
- improvement of enzalutamide treatment [1]: improved enzalutamide treatment; also recorded: improved enza treatment
- cell growth [1]: inhibited cell growth
- Wnt5A expression (Wnt5A): downregulated Wnt5A expression
- effect on enzalutamide treatment (cell numbers) (C4-2B MDVR cells; chimera 10 nM + Enza 20 uM, 3 days and 6 days, listed as tRNA-Wnt5a siRNA-2): enhanced enzalutamide; also recorded: synergizes enzalutamide
- effect on apalutamide treatment (cell number) (C4-2B MDVR cells; combination with apalutamide, 3 days and 6 days): enhances
- effect on darolutamide treatment (cell number) (C4-2B MDVR cells; combination with darolutamide, 3 days and 6 days): enhances
- effect on enzalutamide treatment (cell number) (C4-2B MDVR cells; combination with enzalutamide, 3 days and 6 days): enhances

Reference: patent US20230407297A1, “BIOENGINEERED WNT5A THERAPEUTICS FOR ADVANCED CANCERS” (The Regents of the University of California, priority 2020, published 2023)
